Reference: USRE48267E1, “Variants of C-type natriuretic peptide” (priority 2009, dated 2020)
*1 amine or outer side, *2 acyl side, *3 side chain or, on linkers, in order; H or OH if unused. Where a SMILES comes first, the peptide text is derived from it. Bridges are numbered along the chain shown (N, C = ends). Where no end group is shown, it is not given here. [ ]: non-standard residue; d: D form. X1 = O=C(C(CN[*:1])c1ccccc1)[*:2]; NMeL = CN[C@@H](CC(C)C)C(=O)O; Tle = CC(C)(C)[C@H](N)C(=O)O

T1: NPR-B (natriuretic peptide receptor B), murine, expressed endogenously on NIH3T3 cells (murine, UniProt Q6VVW5 17-1047)
T1 sequence (looked up): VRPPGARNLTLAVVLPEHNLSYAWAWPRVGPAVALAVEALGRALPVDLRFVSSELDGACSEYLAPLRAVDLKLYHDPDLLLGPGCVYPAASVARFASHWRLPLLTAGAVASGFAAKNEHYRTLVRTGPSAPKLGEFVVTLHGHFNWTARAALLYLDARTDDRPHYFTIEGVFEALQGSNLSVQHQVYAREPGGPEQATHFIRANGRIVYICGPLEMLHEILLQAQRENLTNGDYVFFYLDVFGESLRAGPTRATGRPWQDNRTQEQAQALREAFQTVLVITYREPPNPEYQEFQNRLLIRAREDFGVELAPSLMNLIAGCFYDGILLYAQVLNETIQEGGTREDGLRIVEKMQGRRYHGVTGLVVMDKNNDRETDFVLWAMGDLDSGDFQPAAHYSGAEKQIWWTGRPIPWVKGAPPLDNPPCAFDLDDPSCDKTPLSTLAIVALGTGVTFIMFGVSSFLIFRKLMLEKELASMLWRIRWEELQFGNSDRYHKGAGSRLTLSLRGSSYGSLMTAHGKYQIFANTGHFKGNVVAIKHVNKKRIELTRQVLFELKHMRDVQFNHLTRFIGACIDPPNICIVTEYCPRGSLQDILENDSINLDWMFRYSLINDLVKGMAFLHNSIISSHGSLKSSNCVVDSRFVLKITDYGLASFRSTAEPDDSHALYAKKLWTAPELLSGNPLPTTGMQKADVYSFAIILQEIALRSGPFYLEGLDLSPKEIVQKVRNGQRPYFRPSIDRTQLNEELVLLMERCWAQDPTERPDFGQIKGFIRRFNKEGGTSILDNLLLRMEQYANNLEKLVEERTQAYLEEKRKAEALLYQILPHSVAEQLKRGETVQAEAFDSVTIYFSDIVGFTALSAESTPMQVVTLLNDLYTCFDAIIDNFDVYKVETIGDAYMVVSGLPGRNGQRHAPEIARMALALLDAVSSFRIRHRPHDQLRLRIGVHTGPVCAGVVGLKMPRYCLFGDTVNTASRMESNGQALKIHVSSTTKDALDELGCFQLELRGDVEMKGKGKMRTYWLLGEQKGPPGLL


The molecules below were run against T1, NPR-B (natriuretic peptide receptor B), … (assay: cell-based or functional assay). Settings: not given.

Row | Molecule | cGMP response rel. to 1 uM CNP22; 10 nM peptide, NIH3T3 cells | cGMP response rel. to 1 uM CNP22; 1 uM peptide, NIH3T3 cells
1 | GLSKGCFGLK[NMeL]DRIGSMSGLGC (ends and bridges not checked) [CNP22, N-methyl-L11] | 10 rel. to 1 uM CNP22 (100) | 51 rel. to 1 uM CNP22 (100)
2 | GLSKGCFGLKLDRIGSMSGLGC [CNP22 (wild-type human CNP-22)] | 46 rel. to 1 uM CNP22 (100) | 100 rel. to 1 uM CNP22 (100)
3 | GLSKGCFGLKLDRIGSMSGLGC (ends and bridges not checked; also: backbone C=O of Cys6 reduced to CH2 (C6-CH2-NH isostere)) [CNP22, C6-CH2-NH (reduced carbonyl)] | 6 rel. to 1 uM CNP22 (100) | 66 rel. to 1 uM CNP22 (100)
4 | GLSKGCXGLKLDRIGSMSGLGC (N-methyl-Phe at 7) [CNP22, N-methyl-F7 (methylated amide)] | 2 rel. to 1 uM CNP22 (100) | 38 rel. to 1 uM CNP22 (100)
5 | GLSKGCXGLKLDRIGSMSGLGC (D-Phe at 7) [CNP22, D-F7 (D-Phe)] | 2 rel. to 1 uM CNP22 (100) | 6 rel. to 1 uM CNP22 (100)
6 | GLSKGCFG[NMeL]KLDRIGSMSG[NMeL]GC (ends and bridges not checked) [CNP22, N-methyl-L9, N-methyl-L20] | 1 rel. to 1 uM CNP22 (100) | 1 rel. to 1 uM CNP22 (100)
7 | G[dL][dS][dK]G[dC][dF]G[dL][dK][dL][dD][dR][dI]G[dS][dM][dS]G[dL]G[dC] (ends and bridges not checked) [D-CNP22 (all D-amino acids)] | 2 rel. to 1 uM CNP22 (100) | 1 rel. to 1 uM CNP22 (100)
8 | GLSKGCXGLKLDRIGSMSGLGC (3-Cl-Phe at 7) [CNP22, 3-chloro-F7] | 17 rel. to 1 uM CNP22 (100) | 93 rel. to 1 uM CNP22 (100)
9 | GLSKGCFG[NMeL]KLDRIGSMSGLGC (ends and bridges not checked) [CNP22, N-methyl-L9] | 2 rel. to 1 uM CNP22 (100) | 8 rel. to 1 uM CNP22 (100)
10 | GLSKGCFG[NMeL]K[NMeL]DRIGSMSG[NMeL]GC (ends and bridges not checked) [CNP22, N-methyl-L9, N-methyl-L11, N-methyl-L20] | 18 rel. to 1 uM CNP22 (100) | 10 rel. to 1 uM CNP22 (100)
11 | GLSKGCFGLKLDRIGSMSG[NMeL]GC (ends and bridges not checked) [CNP22, N-methyl-L20] | 2 rel. to 1 uM CNP22 (100) | 5 rel. to 1 uM CNP22 (100)
12 | GLSKGCFG[NMeL]K[NMeL]DRIGSMSGLGC (ends and bridges not checked) [CNP22, N-methyl-L9, N-methyl-L11] | 1 rel. to 1 uM CNP22 (100) | 11 rel. to 1 uM CNP22 (100)
13 | GLSKGCF[Tle]LKLDRIGSMSGLGC (ends and bridges not checked) [CNP22, t-butyl-G8] | 2 rel. to 1 uM CNP22 (100) | 18 rel. to 1 uM CNP22 (100)

These molecules were tested against neutral endopeptidase (NEP) (Homo sapiens, UniProt P08473) (assay: in vitro). Settings: human, pH 7.
In short: (§1)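 Recombinant human NEP (1 ug/mL final) incubated with 100 uM CNP variant in 0.1 M Tris, pH 7, at 37° C for various times, then quenched with EDTA (10 mM final) and heat. Samples reduced and analysed by HPLC and mass spectrometry. Half-life derived from loss of intact variant over time.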

neutral endopeptidase (NEP), sequence (P08473 whole entry): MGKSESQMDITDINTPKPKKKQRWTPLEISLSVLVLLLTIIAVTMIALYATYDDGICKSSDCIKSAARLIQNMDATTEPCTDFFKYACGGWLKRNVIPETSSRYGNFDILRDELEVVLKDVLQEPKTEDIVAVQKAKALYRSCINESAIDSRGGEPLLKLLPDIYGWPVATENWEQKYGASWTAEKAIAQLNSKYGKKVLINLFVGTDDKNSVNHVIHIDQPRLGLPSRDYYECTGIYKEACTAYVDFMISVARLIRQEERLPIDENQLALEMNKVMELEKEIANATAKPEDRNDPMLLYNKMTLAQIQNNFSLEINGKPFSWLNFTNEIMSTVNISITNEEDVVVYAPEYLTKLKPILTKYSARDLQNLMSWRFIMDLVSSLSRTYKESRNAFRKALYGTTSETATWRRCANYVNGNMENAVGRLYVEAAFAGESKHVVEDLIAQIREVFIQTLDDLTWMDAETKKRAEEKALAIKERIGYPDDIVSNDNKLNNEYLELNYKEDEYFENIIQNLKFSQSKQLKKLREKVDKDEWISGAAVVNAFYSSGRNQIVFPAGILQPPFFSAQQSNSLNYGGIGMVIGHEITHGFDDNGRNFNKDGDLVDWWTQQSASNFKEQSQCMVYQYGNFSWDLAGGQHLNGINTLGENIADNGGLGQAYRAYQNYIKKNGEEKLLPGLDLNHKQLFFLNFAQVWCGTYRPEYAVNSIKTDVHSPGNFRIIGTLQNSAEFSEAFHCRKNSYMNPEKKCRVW

Row | Molecule | half-life at 100 uM [h]
14 | CC[C@H](C)[C@@H]1NC(=O)[C@H](CCCNC(=N)N)NC(=O)[C@H](CC(=O)O)NC(=O)[C@H](CC(C)C)NC(=O)[C@H](CCCCN)NC(=O)[C@H](CC(C)C)NC(=O)CNC(=O)[C@H](Cc2ccccc2)NC(=O)[C@@H](NC(=O)CNC(=O)[C@H](CCCCN)NC(=O)[C@H](CO)NC(=O)[C@H](CC(C)C)NC(=O)CNC(=O)CCOCCOCCOCCOCCOCCOCCOCCOCCOCCOCCOCCOC)CSSC[C@@H](C(=O)O)NC(=O)CNC(=O)[C@H](CC(C)C)NC(=O)CNC(=O)[C@H](CO)NC(=O)[C@H](CCSC)NC(=O)[C@H](CO)NC(=O)CNC1=O [PEO12-CNP22] | 2.67
15 | CC[C@H](C)[C@@H]1NC(=O)[C@H](CCCNC(=N)N)NC(=O)[C@H](CC(=O)O)NC(=O)[C@H](CC(C)C)NC(=O)[C@H](CCCCN)NC(=O)[C@H](CC(C)C)NC(=O)CNC(=O)[C@H](Cc2ccccc2)NC[C@@H](NC(=O)CNC(=O)[C@H](CCCCN)NC(=O)[C@H](CO)NC(=O)[C@H](CC(C)C)NC(=O)CN)CSSC[C@@H](C(=O)O)NC(=O)CNC(=O)[C@H](CC(C)C)NC(=O)CNC(=O)[C@H](CO)NC(=O)[C@H](CCSC)NC(=O)[C@H](CO)NC(=O)CNC1=O [Analog A] | 0.917
16 | CC[C@H](C)[C@@H]1NC(=O)[C@H](CCCNC(=N)N)NC(=O)[C@H](CC(=O)O)NC(=O)[C@H](CC(C)C)NC(=O)[C@H](CCCCN)NC(=O)[C@H](CC(C)C)NC(=O)CNC(=O)[C@H](Cc2ccccc2)NC(=O)[C@@H](NC(=O)CNC(=O)[C@H](CCCCN)NC(=O)[C@H](CO)NC(=O)[C@H](CC(C)C)NC(=O)CNC(=O)CCCC(=O)NCCOCCOCCOCCOCCC(=O)NC(COCCC(=O)NCCOCCOCCOCCOCCOCCOCCOCCOCCOCCOCCOC)(COCCC(=O)NCCOCCOCCOCCOCCOCCOCCOCCOCCOCCOCCOC)COCCC(=O)NCCOCCOCCOCCOCCOCCOCCOCCOCCOCCOCCOC)CSSC[C@@H](C(=O)O)NC(=O)CNC(=O)[C@H](CC(C)C)NC(=O)CNC(=O)[C@H](CO)NC(=O)[C@H](CCSC)NC(=O)[C@H](CO)NC(=O)CNC1=O [PEO4-(PEO12)3(branched)-CNP22] | > 2.67

Same assay, conditions: human, recombinant human NEP (neutral endopeptidase), pH 7

Row | Molecule | half-life at 100 uM [h]
17 | CC[C@H](C)[C@@H]1NC(=O)[C@H](CCCNC(=N)N)NC(=O)[C@H](CC(=O)O)NC(=O)[C@H](CC(C)C)NC(=O)[C@H](CCCCN)NC(=O)[C@H](CC(C)C)NC(=O)CNC(=O)C(c2ccccc2)CNC(=O)[C@@H](NC(=O)CNC(=O)[C@H](CCCCN)NC(=O)[C@H](CO)NC(=O)[C@H](CC(C)C)NC(=O)CN)CSSC[C@@H](C(=O)O)NC(=O)CNC(=O)[C@H](CC(C)C)NC(=O)CNC(=O)[C@H](CO)NC(=O)[C@H](CCSC)NC(=O)[C@H](CO)NC(=O)CNC1=O (stereo partly drawn) [Analog H] (H-GLSKGC[X1]GLKLDRIGSMSGLGC-OH; disulfide 6-22) | 1.33

Same assay, conditions: human, recombinant human neutral endopeptidase (NEP), pH 7

Row | Molecule | half-life at 100 uM [h]
18 | CC[C@H](C)[C@@H]1NC(=O)[C@H](CCCNC(=N)N)NC(=O)[C@H](CC(=O)O)NC(=O)[C@H](CC(C)C)NC(=O)[C@H](CCCCN)NC(=O)[C@H](CC(C)C)NC(=O)CNC(=O)[C@H](Cc2ccccc2)NC(=O)[C@@H](NC(=O)CNC(=O)CNC(=O)[C@H](CO)NC(=O)[C@H](CC(C)C)NC(=O)CN)CSSC[C@@H](C(=O)O)NC(=O)CNC(=O)[C@H](CC(C)C)NC(=O)CNC(=O)[C@H](CO)NC(=O)[C@H](CCSC)NC(=O)[C@H](CO)NC(=O)CNC1=O [Analog P, CNP22, K4G] (H-GLSGGCFGLKLDRIGSMSGLGC-OH; disulfide 6-22) | 1.13

These molecules were tested against Recombinant human NEP (Homo sapiens, UniProt P08473) (assay: in vitro NEP cleavage assay (disappearance of non-cleaved CNP variant)). Settings: not given.
In short: as §1

Recombinant human NEP, sequence (P08473 whole entry): as the sequence (P08473 whole entry) above

Row | Molecule | resistance to cleavage at the Cys6-Phe7 bond relative to wtCNP22
19 | CC[C@H](C)[C@@H]1NC(=O)[C@H](CCCNC(=N)N)NC(=O)[C@H](CC(=O)O)NC(=O)[C@H](CC(C)C)NC(=O)[C@H](CCCCN)NC(=O)[C@H](CC(C)C)NC(=O)CNC(=O)[C@H](Cc2ccccc2)NC[C@@H](NC(=O)CNC(=O)[C@H](CCCCN)NC(=O)[C@H](CO)NC(=O)[C@H](CC(C)C)NC(=O)CN)CSSC[C@@H](C(=O)O)NC(=O)CNC(=O)[C@H](CC(C)C)NC(=O)CNC(=O)[C@H](CO)NC(=O)[C@H](CCSC)NC(=O)[C@H](CO)NC(=O)CNC1=O [Analog A] | resistance or improved resistance
20 | CC[C@H](C)[C@@H]1NC(=O)[C@H](CCCNC(=N)N)NC(=O)[C@H](CC(=O)O)NC(=O)[C@H](CC(C)C)NC(=O)[C@H](CCCCN)NC(=O)[C@H](CC(C)C)NC(=O)CNC(=O)C(c2ccccc2)CNC(=O)[C@@H](NC(=O)CNC(=O)[C@H](CCCCN)NC(=O)[C@H](CO)NC(=O)[C@H](CC(C)C)NC(=O)CN)CSSC[C@@H](C(=O)O)NC(=O)CNC(=O)[C@H](CC(C)C)NC(=O)CNC(=O)[C@H](CO)NC(=O)[C@H](CCSC)NC(=O)[C@H](CO)NC(=O)CNC1=O (stereo partly drawn) [Analog H] (H-GLSKGC[X1]GLKLDRIGSMSGLGC-OH; disulfide 6-22) | resistance or improved resistance
